Results published in US20220096654A1, “PYRROLOBENZODIAZEPINE-ANTIBODY CONJUGATES AND USES THEREOF” (ADC THERAPEUTICS SA, priority 2020, published 2022).

Assays:
[1] = Dosimetry in non-humanised NSG mice; type: in vivo; conditions: non-humanised NSG mice, monitored 2 weeks
Procedure: For dosimetry in non-humanised NSG mice, adult NSG mice were injected intravenously via the tail vein with unconjugated Mab or ADC up to 5 mg/kg. Mice regularly monitored over a period of 2 weeks for any signs of morbidity. Mice were culled if rapid weight loss (>15%) occurred over a period of 2 days.

[2] = system: human CD45+ cells; assay: Depletion of human CD45+ cells in humanised NSG mice; type: in vivo
Procedure: Adult female NSG mice were sublethally irradiated with 2.5 Gy on the day before transplantation (day −57). Cryopreserved purified CD34+ cells from mobilized peripheral blood from a normal donor were thawed and 0.5×10^6 cells in PBS were injected intravenously into the tail vein of mice (day −56). Human engraftment (human CD45+ cells) in the blood of mice was assessed at day −14 and day −1. Mice were assigned to treatment cohorts so that the median human CD45+ engraftment in the blood between the cohorts was as similar as possible. Mice were injected with 0.3 mg/kg or 1 mg/kg Mab or ADC intravenously via the tail vein. Blood samples were taken after 7 days and analysed by flow cytometry. The bone marrow, blood and spleen of mice were analysed at two weeks post-treatment.

[3] = system: Nalm6 (CD45-); assay: Cell viability assay 72 h (PrestoBlue), Nalm6; type: cell-based, human; conditions: drug-linker B1
Procedure: (§1) OCIM1, Jurkat and Nalm6 cells were seeded at 0.5×10^5/mL were cultured for 72 hours in presence of Mab or ADC or medium (in triplicate wells) in wells of flat bottom 96-well plates. 293T cells were seeded at 9.3×10^3 cells per well in flat bottom 96-well plates and allowed to adhere the plate for up to 24 hours. 293T cells were subsequently cultured with Mab or ADC or medium (in triplicate wells) for 72 hours. PrestoBlue® Cell viability Reagent (Thermo Fisher Scientific) was added to each and incubated for up to 1.5 hours. Fluorescence intensity from each well was detected using a FLUOstar OPTIMA microplate reader (BMG Labtech). Data points are mean±s.d. for representative experiments.

[4] = system: Nalm6 (CD45-); assay: Cell viability assay 5 days (PrestoBlue), Nalm6; type: cell-based, human; conditions: rat IgG2b ADC, n=3
Procedure: (§2) OCIM1, Jurkat and Nalm6 cells were seeded at a final concentration of 1.275×10^4/mL and for 5 days in presence of rat IgG2b Mab or ADC or medium (in triplicate) in wells of flat bottom 96-well plates. 293T cells were seeded at 9.3×10^3 cells per 100 uL per well in flat bottom 96-well plates and allowed to adhere the plate for up to 24 hours. 293T cells were subsequently cultured with rat IgG2b Mabs or ADC or medium (in triplicate wells) as described above. PrestoBlue® Cell viability Reagent (Thermo Fisher Scientific) was added to each and incubated for up to 1.5 hours. Fluorescence intensity from each well was detected using a FLUOstar OPTIMA microplate reader (BMG Labtech). Data was plotted using Prism 8.0 and sigmoid dose-response non-linear regression was used to determine EC50 values. Data points are mean±s.d. for representative experiments.

[5] = system: Jurkat (CD45+); assay: Cell viability assay 72 h (PrestoBlue), Jurkat; type: cell-based, human; conditions: drug-linker B1
Procedure: as §1

[6] = system: 293T (CD45-); assay: Cell viability assay 5 days (PrestoBlue), 293T; type: cell-based, human; conditions: rat IgG2b ADC, n=3
Procedure: as §2

[7] = system: fLuc+ OCIM1 cells; assay: Established AML model in NSG mice, treatment 10 days post-injection; type: in vivo; conditions: cohorts of 5 mice, all tumor-bearing
Procedure: NSG mice were transplanted with 7.5×10^6 fLuc+ OCIM1 cells i.v. At 10 days post-injection of AML cells, unconjugated antibody or ADCs were injected i.v. via a tail vein at a dose of 1 mg/kg or 5 mg/kg. Mice were regularly monitored for signs of morbidity for the duration of the experiment. For imaging, mice were injected intraperitoneally with 200 μl of 15 mg/mL D-luciferin (Regis Technologies) in PBS. Mice were subsequently anesthetized with 4% isoflurane and maintained at 2% isoflurane. Ten minutes after injection of D-luciferin, mice were placed with anterior side up inside a IVIS Lumina III (PerkinElmer). A sub-saturating image was captured using the auto-exposure setting in the Living Image software (v4.5). Quantification and preparation of images was also carried out using the same software.

[8] = system: human CD45+ cells; assay: Allogeneic stem cell transplant model in humanized NSG mice (YTH24.5-B1 conditioning); type: in vivo; conditions: 1 mg/kg
Procedure: Adult NSG mice (Charles River Laboratories) were sublethally irradiated with 2.5 Gy in a ^137Cs irradiator. On the following day, mice were injected with 0.5×10^6 freshly thawed cryopreserved human CD34+ cells from a health donor were injected via the tail vein in 150 μL PBS using a 29 gauge MicroFine Plus insulin syringe (BD). Engraftment of human cells in the blood was assessed periodically from 6 weeks after transplantation. At 10 weeks post-transplant, humanized NSG mice were assigned into cohorts with similar median human CD45+ cell engraftment in the blood, as determined by flow cytometry. Mice were injected with PBS or 1 mg/kg YTH24.5-B1. Sixteen 16 days after treatment, mice were transplanted with 0.5×10^6 GFP+CD34+ cells from another healthy donor. Irradiated NSG […] were also transplanted with the GFP+CD34+ from the allogeneic healthy donor as a control for engraftment of the GFP+CD34+ cells. 8 weeks after transplantation of GFP+ cells, mice were culled and blood, spleen and bone marrow taken for analysis by flow cytometry.

Row | Molecule | Comment (survival / culling) ([1]; 0.5 mg/kg i.v.) | Comment (survival / culling) ([1]; 5 mg/kg i.v.) | Mean % hCD45 levels in blood, 1 week post-treatment ([2]; 0.3 mg/kg i.v.) | Mean % hCD45 levels in blood, 2 weeks Post-treatment ([2]; 0.3 mg/kg i.v.) | Mean % hCD45 levels in blood, 1 week post-treatment ([2]; 1 mg/kg i.v.) | Mean % hCD45 levels in blood, 2 weeks Post-treatment ([2]; 1 mg/kg i.v.) | Mean % hCD45 levels in blood, Pre-treatment ([2]; group later dosed 0.3 mg/kg) | Mean % hCD45 levels in blood, Pre-treatment ([2]; group later dosed 1 mg/kg) | EC50 [3] | EC50 [4] | EC50 values, viability assay, Jurkat (CD45+) [5] | EC50 [6] | mice alive at 60 days [7] | course of the levels of human CD45+ cells in blood ([2]; 0.3 mg/kg, two week period) | mean % hCD45 engraftment in the bone marrow ([8]; 8 weeks after allogeneic GFP+ cells, PBS 37.5%) | percentage GFP+hCD45+ cells of all human CD45+ cells in bone marrow (mean) ([8]; PBS 2.1%, irradiation control 41.3%) | GFP+hCD34+ cells within the human CD34+ compartment in the bone marrow (mean) ([8]; PBS 3.7%)
1 | YTH54.12-B1: rat IgG2b anti-CD45 antibody YTH54.12 conjugated to cleavable PBD drug-linker B1 (drawing 43) (conjugate) heavy: EVQLVESGGGLVQPGGSMKLSCAASGFTFSDYYMAWVRQAPKKGLEWVASMSFAGSSTYYGDSVKGRFTISRDNAKTTLYLQMNSLRSEDTATYYCARMYTTDYYLYWYFDFWGPGTMVTVSSAQTTAPSVYPLAPGCGDTTSSTVTLGCLVKGYFPEPVTVTWNSGALSSDVHTFPAVLQSGLYTLTSSVTSSTWPSQTVTCNVAHPASSTKVDKKVERRNGGIGHKCPTCPTCHKCPVPELLGGPSVFIFPPKPKDILLISQNAKVTCVVVDVSEEEPDVQFSWFVNNVEVHTAQTQPREEQYNSTFRVVSALPIQHQDWMSGKEFKCKVNNKALPSPIEKTISKPKGLVRKPQVYVMGPPTEQLTEQTVSLTCLTSGFLPNDIGVEWTSNGHIEKNYKNTEPVMDSDGSFFMYSKLNVERSRWDSRAPFVCSVVHEGLHNHHVEKSISRPPGK light: DVQMTQSPSYLAASPGESVSISCKASKSISNYLAWYQQKPGEANKILIYSGSTLQSGTPSRFSGSGSGTDFSLTIRNLEPEDFAVYYCQQYDEKPLTFGSGTKLEIKRADAAPTVSIFPPSMEQLTSGGATVVCFVNNFYPRDISVKWKIDGSEQRDGVLDSVTDQDSKDSTYSMSSTLSLTKVEYERHNLYTCEVVHKTSSSPVVKSFNRNEC | All alive at day 14 | All alive at day 14 | 2.99% | 1.31% | 0.75% | 0.38% | 5.37% | 6.14% | 4.23 nM | 0.00964 nM | low pM range | > 6 nM |  |  |  |  | 
2 | YTH24.5-B1: rat IgG2b anti-CD45 antibody YTH24.5 conjugated to cleavable PBD drug-linker B1 (drawing 43) (conjugate) heavy: QVNLLQSGAALVKPGASVKLSCKASSYTFTDYYIHWVKQSHGKTLEWIGYINPKSGFTNYNEKFRRKATLTVDKSTNTAYMDISRLTSEDSATYYCTRRTGVIPMDAWGQGASVTVSSAQTTAPSVYPLAPGCGDTTSSTVTLGCLVKGYFPEPVTVTWNSGALSSDVHTFPAVLQSGLYTLTSSVTSSTWPSQTVTCNVAHPASSTKVDKKVERRNGGIGHKCPTCPTCHKCPVPELLGGPSVFIFPPKPKDILLISQNAKVTCVVVDVSEEEPDVQFSWFVNNVEVHTAQTQPREEQYNSTFRVVSALPIQHQDWMSGKEFKCKVNNKALPSPIEKTISKPKGLVRKPQVYVMGPPTEQLTEQTVSLTCLTSGFLPNDIGVEWTSNGHIEKNYKNTEPVMDSDGSFFMYSKLNVERSRWDSRAPFVCSVVHEGLHNHHVEKSISRPPGK light: DVVMTQTPVSLSVSLGGQVSISCRSSQSFVSSDGNTYLNWYLQKPGQSPQLLIYKVSNRLSGVPDRFSGSGSGTDFTLKISRVEHDDLGVYYCGQASKIPLTFGSGTKLEIKRADAAPTVSIFPPSMEQLTSGGATVVCFVNNFYPRDISVKWKIDGSEQRDGVLDSVTDQDSKDSTYSMSSTLSLTKVEYERHNLYTCEVVHKTSSSPVVKSFNRNEC | All alive at day 14 | All alive at day 14 | 5.63% | 1.75% | 1.08% | 0.64% | 8.89% | 6.08% | 2.83 nM | 0.00934 nM | low pM range | > 6 nM | 4/5 | persistent loss | 9.08% | 29.0% | 56.6%
